According to patent US20070122429A1 (published 2007):

Assays:
[1] = target: HIV-1 HXB2 Env (gp41 N-trimer region) (HIV-1 HXB2, UniProt P04578 33-856); experiment: cell-based or functional assay
[2] = target: HIV-1 JRFL Env (gp41 N-trimer region) (HIV-1 JRFL); experiment: cell-based or functional assay
IZN36 (biotinylated …) = target: T1, IZN36 (biotinylated Cys-Gly-Gly-Asp-IZN36, His tag removed); experiment: SPR, immobilised IZN36; compared with MBP-C37
T1 construct: also called biotinylated IZN36

B1: MBP1-C37 (other)
chain: SSSGGGSGGGSGGGSSSSGGHTTWMEWDREINNYTSLIHSLIEESQNQQEKNEQELLHHHHHH
notes: domain: C-peptide (C37)
With B1 the “IC50, viral infectivity HXB2” value [1] was 0.0889 µM, the “IC50, viral infectivity JRFL” value [2] was 0.64 µM and the “KD difference from MBP-C37” value (IZN36 (biotinylated …)) was < 20%.

B2: MBP2-C37 (other)
chain: SSSGGGSGGGSGGGSSGGGSGGGSGGGSSSSGGHTTWMEWDREINNYTSLIHSLIEESQNQQEKNEQELLHHHHHH
notes: domain: C-peptide (C37)
B2 was tested, and the “IC50, viral infectivity HXB2” value [1] was 0.0792 µM, the “IC50, viral infectivity JRFL” value [2] was 0.516 µM and the “KD difference from MBP-C37” value (IZN36 (biotinylated …)) was < 20%.

B3: MBP-C37 (other)
chain: SSSSSGGHTTWMEWDREINNYTSLIHSLIEESQNQQEKNEQELLHHHHHH
With B3 the “IC50, cell-cell fusion (HXB2 Env)” value [1] was 0.192 µM, the “IC50, viral infectivity HXB2” value [1] was 0.206 µM and the “IC50 ratio (cell-cell fusion), relative to C37” value [1] was 225. The “IC50 ratio HXB2 (viral infectivity), relative to C37” value [1] was 74.8, the “IC50, viral infectivity JRFL” value [2] was 1.87 µM and the “IC50 ratio JRFL (viral infectivity), relative to C37” value [2] was 228.
